Measured values reported in PMC6028389, “Dedicated surveillance mechanism controls G-quadruplex forming non-coding RNAs in human mitochondria”.

Biological target: T1, GRSF1 wild type (Homo sapiens, UniProt Q12849 118-480)
T1 sequence: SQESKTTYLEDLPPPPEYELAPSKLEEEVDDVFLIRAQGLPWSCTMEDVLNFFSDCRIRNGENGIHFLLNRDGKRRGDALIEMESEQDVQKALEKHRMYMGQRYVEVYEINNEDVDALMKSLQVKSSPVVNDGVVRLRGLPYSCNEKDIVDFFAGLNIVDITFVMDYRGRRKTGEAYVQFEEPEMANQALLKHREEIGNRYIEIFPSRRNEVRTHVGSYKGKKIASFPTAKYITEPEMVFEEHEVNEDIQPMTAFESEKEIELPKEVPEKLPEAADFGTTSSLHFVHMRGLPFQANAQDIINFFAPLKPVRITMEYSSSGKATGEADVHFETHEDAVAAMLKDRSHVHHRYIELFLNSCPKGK
Assay: EMSA; 75 ug/ml heparin; EMSA: 5 nM RNA, 0-2560 nM protein, 10 mM Tris-HCl pH 8.0, 2.5 mM KCl, 30 mM NaCl, 1 mM EDTA, 0.2 mM DTT, 75 ug/ml heparin, 30 min at 30 C; 7% PAGE
Conditions: protein: recombinant; tags: N-terminal 6xHis-SUMO, cleaved by SUMO protease; label: 5'-32P; predicted secondary structure; G4-forming

B1: tRNA-like (structured_RNA)
RNA: GGGCUGUGACUAGUAUGUUGAGUCCUGUAAGUAGGAGAGUGAUAUUUGAUCAGGAGAACGUGGUUACUAGCACCCA
  Kd: ~100 nM
